What was measured:
[1] = biological target: 6xHis-TLX ligand-binding domain, Q9Y466; assay: BLI; 6xHis-TLX LBD on Ni-NTA biosensors, Octet Red 96; atrophin peptide in solution
[2] = biological target: 6xHis-TLX ligand-binding domain, Q9Y466; assay: AlphaScreen or HTRF; ALPHA; atrophin peptide on donor beads, TLX ligand-binding domain on acceptor beads; competition with untagged atrophin peptide

Sequence of 6xHis-TLX ligand-binding domain, Q9Y466 (Q9Y466 155-385): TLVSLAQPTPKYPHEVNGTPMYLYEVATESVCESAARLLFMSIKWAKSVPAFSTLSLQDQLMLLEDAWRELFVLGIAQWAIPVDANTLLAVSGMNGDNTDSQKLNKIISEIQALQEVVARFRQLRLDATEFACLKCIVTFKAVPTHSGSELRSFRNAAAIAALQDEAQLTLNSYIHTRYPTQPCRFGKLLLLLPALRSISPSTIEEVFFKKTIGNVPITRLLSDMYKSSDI

## PPYADTPALRQLSEYARPHVAFSP (modifications not checked) [atrophin corepressor peptide (untagged)]
[1]
  Kd: 14.2 µM
[2]
  EC50: 1.3 µM

From PMC9060471
